Data taken from paper PMC6318265, “Structure of BAI1/ELMO2 complex reveals an action mechanism of adhesion GPCRs via ELMO family scaffolds” (Nature Communications, 2019).

T1: ELMO2-RAE (sample of the ITC titration) (human, UniProt Q96JJ3 1-520)
T1 construct: ELMO2, GenBank AF398886.1, aa 1-520 (RBD-ARR-ELMO tandem); Tag removal is described only for crystallography; also called Trx-His6-ELMO2-RAE; source: E. coli BL21 (DE3), purified (Ni-NTA, SEC)
T1 sequence (looked up): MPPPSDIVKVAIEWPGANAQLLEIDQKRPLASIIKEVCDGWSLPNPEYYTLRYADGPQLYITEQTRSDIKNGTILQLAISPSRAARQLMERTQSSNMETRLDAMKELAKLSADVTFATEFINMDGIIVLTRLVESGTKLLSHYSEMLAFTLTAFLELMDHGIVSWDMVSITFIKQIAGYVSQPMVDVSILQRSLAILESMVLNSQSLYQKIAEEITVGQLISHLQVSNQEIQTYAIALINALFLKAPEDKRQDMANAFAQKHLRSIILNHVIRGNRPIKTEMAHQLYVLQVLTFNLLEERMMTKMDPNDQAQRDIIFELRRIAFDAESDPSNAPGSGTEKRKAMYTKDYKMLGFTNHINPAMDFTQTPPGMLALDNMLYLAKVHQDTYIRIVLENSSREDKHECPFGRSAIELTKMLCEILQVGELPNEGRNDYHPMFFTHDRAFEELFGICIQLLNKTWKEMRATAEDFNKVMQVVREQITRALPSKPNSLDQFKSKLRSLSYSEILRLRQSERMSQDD

T2: ELMO2-RAE (tag removed, for crystallography) (human, UniProt Q96JJ3 1-520)
T2 construct: ELMO2, GenBank AF398886.1, aa 1-520 (RBD aa 1-80, ARR aa 81-301, ELMO domain aa 306-513); also called RAE tandem of ELMO2; source: E. coli BL21 (DE3), purified (Ni-NTA, SEC, 3C protease cleavage, SEC)
T2 sequence (looked up): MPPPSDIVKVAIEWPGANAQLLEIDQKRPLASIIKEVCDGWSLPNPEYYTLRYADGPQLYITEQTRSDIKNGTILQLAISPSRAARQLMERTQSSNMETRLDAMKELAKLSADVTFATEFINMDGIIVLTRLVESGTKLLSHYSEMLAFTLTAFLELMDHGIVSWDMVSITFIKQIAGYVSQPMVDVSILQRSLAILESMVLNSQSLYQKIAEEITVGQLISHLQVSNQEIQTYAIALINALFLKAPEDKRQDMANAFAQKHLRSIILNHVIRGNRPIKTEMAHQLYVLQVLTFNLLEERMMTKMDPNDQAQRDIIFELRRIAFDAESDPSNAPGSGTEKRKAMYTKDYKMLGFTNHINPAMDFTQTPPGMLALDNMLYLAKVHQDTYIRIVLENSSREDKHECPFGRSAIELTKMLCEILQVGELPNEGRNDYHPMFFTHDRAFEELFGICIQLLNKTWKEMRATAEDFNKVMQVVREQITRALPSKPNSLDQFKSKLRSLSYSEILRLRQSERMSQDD


Assays:
[1] = biological target: T1, ELMO2-RAE (sample of the ITC titration); assay: ITC; MicroCal iTC200, 25 °C; 50 mM Tris pH 8.0, 100 mM NaCl, 1 mM EDTA, 1 mM DTT; BAI1-EBD (~500 µM) in the syringe, ELMO2-RAE (~40 µM) in the cell; conditions: both partners purified
[2] = biological target: T2, ELMO2-RAE (tag removed, for …); assay: crystal structure; ELMO2-RAE mixed with synthetic BAI1-EBD peptide at 1:2; 0.3 M ammonium fluoride, 18% PEG3,350, 16 °C; 1.7 Å, molecular replacement; conditions: both partners purified

Binder	Kd [1]	stoichiometry N [1]	stoichiometry N [2]
SLERRKSRYAELDFEKIMHTRKRHQDMFQDLNRKLQ (domain or fragment, mouse, UniProt Q3UHD1-1 1467-1502, looked up, the methods speak of 'BAI1 proteins') [BAI1-EBD (sample of the ITC titration)]	~3.36 µM	1	–
SLERRKSRYAELDFEKIMHTRKRHQDMFQDLNRKLQ (peptide, UniProt Q3UHD1-1 1467-1502, looked up, aa 1471-1495 are defined in the electron density; source: synthetic peptide (ChinaPeptide Co.,Ltd.)) [synthetic BAI1-EBD peptide]	–	–	1
